Laboratory results taken from PMC8203652, “Facile fabrication of antibacterial and antiviral perhydrolase-polydopamine composite coatings” (Scientific Reports, 2021).

Substrate: CC(=O)OCC(C)OC(C)=O
Test: purified protein
Assay type: biochemical, Mycolicibacterium smegmatis
Conditions: free enzyme; 200 mM H2O2 constant, PGD 3-100 mM, PBS; apparent (two-substrate reaction)

B1: AcT (perhydrolase S54V) (Mycolicibacterium smegmatis MC2 155; S54V) (protein)
chain: MAKRILCFGDSLTWGWVPVEDGAPTERFAPDVRWTGVLAQQLGADFEVIEEGLVARTTNIDDPTDPRLNGASYLPSCLATHLPLDLVIIMLGTNDTKAYFRRTPLDIALGMSVLVTQVLTSAGGVGTTYPAPKVLVVSPPPLAPMPHPWFQLIFEGGEQKTTELARVYSALASFMKVPFFDAGSVISTDGVDGIHFTEANNRDLGVALAEQVRSLL
notes: synthetic gene in pET28a, N-terminal His8 tag and thrombin site (LVPRGS), expressed in E. coli BL21(DE3), Ni-NTA purified; MW 180 kDa printed; S54V printed in the introduction only
Km: 13 mM
kcat: 4700 s⁻¹
